Test results: the supplement of paper PMC9732359
± gives the uncertainty stated by the source.

Experiment: protein stability index of a GFP-peptide fusion (yeast GPS) (PSI 1-4); higher = more stable; sorted into four equal gates, so the index is relative within each strain
In short: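 Plasmids isolated from each sorting gate were PCR-amplified and Illumina-sequenced, and barcodes assigned the reads to strains. The gates, four of equal size, were set by GFP/Cherry fluorescence ratio on mid-log cultures in leucine-free medium. These cultures were yeast carrying a pooled library of tiled 17-residue yeast protein peptides fused downstream of GFP on a plasmid that also expresses Cherry. The protein stability index is the sum of every gate's read frequency times its gate number.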

Sequence | protein stability index (doa10∆) | protein stability index (pdr5∆) | protein stability index (san1∆) | protein stability index (ubr1∆)
TFTQLVSSSLYERRFGP [PUP3] | 2.79 ± 0.12 | 2.94 ± 0.16 | 2.73 ± 0.12 | 2.94 ± 0.092
LRSDFYILANHYLSRVL [YJL039C/NUP192] | 2.81 ± 0.054 | 2.85 ± 0.07 | 2.59 ± 0.07 | 2.44 ± 0.044
NFNSSAPIADDNHSGDA [DSN1] | 1.92 ± 0.081 | 2.8 ± 0.1 | 2.45 ± 0.09 | 2.68 ± 0.067
WRILKEDYAIVTKGGTV [PRP28] | 3.47 ± 0.27 | 3.2 ± 0.29 | 3.26 ± 0.11 | 3.41 ± 0.17
SSRLEFVKGISRDIKAL [YML103C/NUP188] | 2.39 ± 0.081 | 1.81 ± 0.057 | 1.99 ± 0.085 | 1.62 ± 0.04
TKRWYKNAGLGFKTPKT [RPS11A] | 3.32 ± 0.096 | 3.42 ± 0.12 | 3.05 ± 0.11 | 3.5 ± 0.082
RIKEMYWKLWIDEPFNL [FAS1] | 3.39 ± 0.086 | 3.25 ± 0.078 | 2.76 ± 0.12 | 2.91 ± 0.075
FSQTVADNNDLQESINH [ECM29] | 3.03 ± 0.055 | 3.08 ± 0.049 | 3.02 ± 0.047 | 3.1 ± 0.048
IYVHVRRSTPFSKIAEY [ESC2] | 2.16 ± 0.053 | 2.33 ± 0.049 | 2.52 ± 0.05 | 2.52 ± 0.047
VDSRATAGNWVASQTVK [PRE2] | 3.17 ± 0.12 | 3.4 ± 0.079 | 3.13 ± 0.078 | 3.26 ± 0.066
KEILDNILPFLWGPHGL [ECM29] | 2.67 ± 0.24 | 3.09 ± 0.24 |  | 3.37 ± 0.17
EKLDVSRSSVCVKAIEA [YCG1] | 2.54 ± 0.065 | 2.16 ± 0.058 | 2.08 ± 0.079 | 2.11 ± 0.058
TLYSVKSKEDMKQLKFF [SNU114] | 3.28 ± 0.17 | 3.33 ± 0.13 | 3.17 ± 0.083 | 3.1 ± 0.087
DSVATVIEVIETKWDDA [YJR042W/NUP85] | 2.32 ± 0.24 | 2.64 ± 0.28 | 2.16 ± 0.17 | 2.1 ± 0.27
FEIDGDVIHFEDSSILQ [PCI8] | 3.15 ± 0.083 | 3.46 ± 0.072 | 3.04 ± 0.066 | 3.46 ± 0.044
KSLHEMNERDWRILKED [PRP28] | 3.4 ± 0.19 | 3.05 ± 0.2 | 3.33 ± 0.072 | 3.01 ± 0.23
TETSNEDEDEDDETPSC [SNU114] | 2.68 ± 0.067 | 2.75 ± 0.058 | 3.02 ± 0.055 | 2.74 ± 0.046
RDKVCKQINEARDEILP [PGD1] | 1.77 ± 0.091 | 1.6 ± 0.14 | 1.5 ± 0.16 | 
DTFELIKTFLVDLTSSN [YDL116W/NUP84] | 2.69 ± 0.07 | 3.19 ± 0.073 | 2.55 ± 0.08 | 3.1 ± 0.046
DKETQLKKRAVSGVELR [POP7] | 2.7 ± 0.21 | 2.57 ± 0.26 | 2.36 ± 0.18 | 2.27 ± 0.25
EPYVAYGYPSYSTIRQL [RPL7A] | 1.87 ± 0.044 | 2.14 ± 0.048 | 2.14 ± 0.058 | 2.23 ± 0.036
QPKAPRAPKVIHGQDFQ [ISW2] | 2.88 ± 0.089 | 3.02 ± 0.097 | 2.94 ± 0.05 | 3.19 ± 0.058
KNKPELYQIDYLGTKVE [PRE1] | 2.82 ± 0.091 | 2.95 ± 0.1 | 3.09 ± 0.064 | 3.16 ± 0.089
YSRISKLKQLLDESSEQ [YIL149C/MLP2] | 2.25 ± 0.077 | 2.67 ± 0.088 | 1.73 ± 0.14 | 2.4 ± 0.053
LTGNQLPTPTPTEMEPD [SWI1] | 2.67 ± 0.051 | 2.92 ± 0.052 | 2.51 ± 0.062 | 2.85 ± 0.03
TSLQGTYEAIEITDAYC [YMR129W/POM152] | 2.63 ± 0.053 | 2.86 ± 0.059 | 2.74 ± 0.049 | 2.52 ± 0.038

Sequence | protein stability index (doa10∆) | protein stability index (pdr5∆) | protein stability index (san1∆) | protein stability index (ubr1∆)
DYINELSNSNRFELHGD [REC8] | 2.78 ± 0.12 | 3.08 ± 0.11 | 3 ± 0.092 | 3.03 ± 0.13
KPFLKGLVNHRVGVKLK [SMX3] | 2.76 ± 0.042 | 2.21 ± 0.041 | 2.07 ± 0.052 | 1.78 ± 0.031
DVHLLESKVYHKLRNLA [RPN6] | 1.95 ± 0.069 | 2.33 ± 0.086 | 2.17 ± 0.14 | 2.13 ± 0.11
PKPDKPSGRTRGRSVMK [ESC2] | 3.14 ± 0.17 | 3.05 ± 0.15 | 3.08 ± 0.098 | 3.7 ± 0.13
HKQGSSYVAVLGMGKAV [POP7] | 1.69 ± 0.077 | 1.71 ± 0.053 | 1.66 ± 0.082 | 1.86 ± 0.062
IDQAHVSEITKLKFFPS [RPN14] | 3.12 ± 0.077 | 3.01 ± 0.071 | 3.12 ± 0.054 | 3.28 ± 0.053
ASLHSKELTRIPGEEVE [MED4] | 2.97 ± 0.12 | 3.29 ± 0.18 | 3.03 ± 0.12 | 
KYLSDIMELPGVYSDDE [SRP68] | 3.14 ± 0.25 | 3.08 ± 0.17 | 3.59 ± 0.17 | 3.36 ± 0.11
FSPDGHIFQVEYALEAV [PRE6] | 3 ± 0.057 | 3.07 ± 0.054 | 3.1 ± 0.035 | 3.18 ± 0.037
IELLSYLVEAPWNDDYP [YML103C/NUP188] | 1.68 ± 0.093 | 2.04 ± 0.15 |  | 2.49 ± 0.17
FMLRKQDPKTLVALLSR [SSN2] | 1.6 ± 0.055 | 1.84 ± 0.041 | 1.85 ± 0.079 | 2.09 ± 0.043
KRSGVIETVDDKLKDIV [ITC1] | 3.15 ± 0.29 | 3 ± 0.3 |  | 
DDALHAKKLPNGNWEVG [DIS3] | 3.3 ± 0.098 | 3.12 ± 0.083 | 2.94 ± 0.057 | 3.05 ± 0.057
PEQVYSLLLTNVIITGS [ARP7] | 1.36 ± 0.06 | 1.39 ± 0.047 | 1.17 ± 0.11 | 1.23 ± 0.046
HDELIDSIPRDVAYLLK [YGL172W/NUP49] | 2.49 ± 0.12 | 2.82 ± 0.13 | 2.89 ± 0.055 | 3.05 ± 0.095
EECGRTIHRSFTICLND [CSN12] | 2.93 ± 0.064 | 2.87 ± 0.065 | 2.84 ± 0.055 | 2.86 ± 0.044
CINKWIKTRDACPLDNQ [HRT1] | 3.16 ± 0.093 | 3.03 ± 0.079 | 2.72 ± 0.078 | 3.17 ± 0.05
QDLILDLKKKLNSLKDE [SMC4] | 2.39 ± 0.083 | 2.82 ± 0.2 | 2.01 ± 0.076 | 1.57 ± 0.062
NQKLALVIKSGKYTLGY [RPL30] | 2.46 ± 0.11 | 2.87 ± 0.09 | 2.29 ± 0.13 | 2.93 ± 0.047
VENYETSSAFFYQQVHK [SIR4] | 2.75 ± 0.04 | 2.57 ± 0.042 | 2.43 ± 0.045 | 2.52 ± 0.03
QLGPQTPAFNTAILQRQ [ECM29] | 1.39 ± 0.21 | 1.49 ± 0.17 | 1.41 ± 0.17 | 1.67 ± 0.21
KFPTRKIYMLYSLQPSV [RPC34] |  | 2.13 ± 0.23 |  | 
TDSSALTYDRLEFATIR [PRE9] | 3.07 ± 0.081 | 3.27 ± 0.076 | 3.01 ± 0.056 | 3.18 ± 0.045
KKSGSLTFNSKNIQSKD [FAS2] | 3.2 ± 0.12 | 3.29 ± 0.13 | 3.26 ± 0.13 | 3.27 ± 0.075
TRAGGLGINLVTADTVI [ISW2] | 2.19 ± 0.061 | 2.13 ± 0.054 | 2.12 ± 0.1 | 2.89 ± 0.096
